Assay [1] concerns the target T1, rat NTNRα, endogenous on embryonic (E14) rat spinal motoneurons (rat).
T1 sequence (chain, GPI-linked): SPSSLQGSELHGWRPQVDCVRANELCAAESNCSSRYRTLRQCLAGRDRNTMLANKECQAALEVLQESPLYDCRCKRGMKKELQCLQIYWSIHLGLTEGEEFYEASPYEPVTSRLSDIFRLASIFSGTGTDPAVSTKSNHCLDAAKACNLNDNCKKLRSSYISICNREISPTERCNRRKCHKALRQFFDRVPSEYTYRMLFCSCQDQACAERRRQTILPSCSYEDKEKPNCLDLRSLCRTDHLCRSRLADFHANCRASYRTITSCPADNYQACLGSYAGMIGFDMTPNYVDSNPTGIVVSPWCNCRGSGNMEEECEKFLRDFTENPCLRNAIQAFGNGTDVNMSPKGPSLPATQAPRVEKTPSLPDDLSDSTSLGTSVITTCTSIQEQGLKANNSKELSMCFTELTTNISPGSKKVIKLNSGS
Description: cell-based or functional assay.

In assay [2] the target is T2, recombinant soluble rat GDNFRα (rat, UniProt Q62997 25-430, limits assumed).
T2 construct: also called rGDNFRα; GFR-alpha-1
T2 sequence: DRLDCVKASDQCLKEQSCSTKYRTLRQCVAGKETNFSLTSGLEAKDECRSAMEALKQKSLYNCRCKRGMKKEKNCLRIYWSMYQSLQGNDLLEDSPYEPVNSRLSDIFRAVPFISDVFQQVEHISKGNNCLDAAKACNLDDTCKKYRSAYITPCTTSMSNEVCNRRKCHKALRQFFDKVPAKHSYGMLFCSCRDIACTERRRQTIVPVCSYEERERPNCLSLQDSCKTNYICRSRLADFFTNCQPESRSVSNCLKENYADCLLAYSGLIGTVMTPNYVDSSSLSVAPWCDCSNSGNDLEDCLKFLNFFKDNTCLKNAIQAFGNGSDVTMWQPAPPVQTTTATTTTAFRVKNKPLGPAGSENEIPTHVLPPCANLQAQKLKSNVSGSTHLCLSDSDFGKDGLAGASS
In words: displacement of 125I-rGDNF from soluble GDNFRα by unlabeled NTN (10 nM).

Assay [3] concerns the target T2, recombinant soluble rat GDNFRα. In words: competition binding of 125I-rGDNF to soluble rGDNFRα, Scatchard analysis.
Assay [4] shares this target. In words: binding of biotinylated NTN.

The values below come from patent US20110136223A1 (Genentech, published 2011).

B1: Neurturin (NTN), species not stated at the place of use (ligand, UniProt Q99748 96-197, looked up, species assumed)
Neurturin: ARLGARPCGLRELEVRVSELGLGYASDETVLFRYCAGACEAAARVYDLGLRRLRQRRRLRRERVRAQPCCRPTAYEDEVSFLDAHSRYHTVHELSARECACV
By Kd is commonly meant the concentration at which binding is half-saturated. Consider B1, for which, in assay [1], the reduction of the motoneuron survival response to NTN after PIPLC treatment (FIG. 7C) fell in the range of 50 to 90% and the survival of E14 rat spinal motoneurons, counted 72 hours after addition of factor came to 50%. The dissociation constant (Kd) in assay [2] was above 0.001 µM.

B2: rat glial cell line-derived neurotrophic factor (ligand, UniProt Q07731 78-211, looked up)
chain: SPDKQAAALPRRERNRQAAAASPENSRGKGRRGQRGKNRGCVLTAIHLNVTDLGLGYETKEELIFRYCSGSCEAAETMYDKILKNLSRSRRLTSDKVGQACCRPVAFDDDLSFLDDSLVYHILRKHSAKRCGCI
modifications: 125I-labelled when used as tracer (iodinated either on tyrosine by the Bolton Hunter method or on lysine using lactoperoxidase)
notes: also called rGDNF; rat GDNF
With B2, the dissociation constant (Kd) in assay [3] amounted to 3 pM.

B3: mouse Neurturin (ligand, UniProt P97463 96-195, looked up)
chain: PGARPCGLRELEVRVSELGLGYTSDETVLFRYCAGACEAAIRIYDLGLRRLRQRRRVRRERARAHPCCRPTAYEDEVSFLDVHSRYHTLQELSARECACV
modifications: 125I-labelled when used as tracer
notes: also called mouse NTN; mNTN
As for B3, the dissociation constant (Kd) in assay [4] was above 1000 µM.
